Source: publication PMC5456377, “Megalin dependent urinary cystatin C excretion in ischemic kidney injury in rats” (PLoS ONE, 2017)

What was measured:
rat cubilin = target: T1, rat cubilin (rat, UniProt O70244 33-3623); test: SPR; rat megalin or cubilin immobilised; human cysC flowed at 20-500 nM (7 concentrations); CaHBS: 10 mM HEPES, 150 mM NaCl, 1.5 mM CaCl2, 1 mM EGTA, pH 7.4; Biacore 3000; Langmuir 1:1 model, global fit; conditions: both partners purified
T1 construct: cubilin, rat, purified and immobilised on the SPR chip; probably the native receptor purified from rat kidney (surmised)

rat megalin = target: T2, rat megalin (rat, UniProt P98158 26-4660); test: as above; conditions: both partners purified
T2 construct: megalin, rat, purified and immobilised on the SPR chip; probably the native receptor purified from rat kidney (surmised)
T2 sequence (P98158 26-4660): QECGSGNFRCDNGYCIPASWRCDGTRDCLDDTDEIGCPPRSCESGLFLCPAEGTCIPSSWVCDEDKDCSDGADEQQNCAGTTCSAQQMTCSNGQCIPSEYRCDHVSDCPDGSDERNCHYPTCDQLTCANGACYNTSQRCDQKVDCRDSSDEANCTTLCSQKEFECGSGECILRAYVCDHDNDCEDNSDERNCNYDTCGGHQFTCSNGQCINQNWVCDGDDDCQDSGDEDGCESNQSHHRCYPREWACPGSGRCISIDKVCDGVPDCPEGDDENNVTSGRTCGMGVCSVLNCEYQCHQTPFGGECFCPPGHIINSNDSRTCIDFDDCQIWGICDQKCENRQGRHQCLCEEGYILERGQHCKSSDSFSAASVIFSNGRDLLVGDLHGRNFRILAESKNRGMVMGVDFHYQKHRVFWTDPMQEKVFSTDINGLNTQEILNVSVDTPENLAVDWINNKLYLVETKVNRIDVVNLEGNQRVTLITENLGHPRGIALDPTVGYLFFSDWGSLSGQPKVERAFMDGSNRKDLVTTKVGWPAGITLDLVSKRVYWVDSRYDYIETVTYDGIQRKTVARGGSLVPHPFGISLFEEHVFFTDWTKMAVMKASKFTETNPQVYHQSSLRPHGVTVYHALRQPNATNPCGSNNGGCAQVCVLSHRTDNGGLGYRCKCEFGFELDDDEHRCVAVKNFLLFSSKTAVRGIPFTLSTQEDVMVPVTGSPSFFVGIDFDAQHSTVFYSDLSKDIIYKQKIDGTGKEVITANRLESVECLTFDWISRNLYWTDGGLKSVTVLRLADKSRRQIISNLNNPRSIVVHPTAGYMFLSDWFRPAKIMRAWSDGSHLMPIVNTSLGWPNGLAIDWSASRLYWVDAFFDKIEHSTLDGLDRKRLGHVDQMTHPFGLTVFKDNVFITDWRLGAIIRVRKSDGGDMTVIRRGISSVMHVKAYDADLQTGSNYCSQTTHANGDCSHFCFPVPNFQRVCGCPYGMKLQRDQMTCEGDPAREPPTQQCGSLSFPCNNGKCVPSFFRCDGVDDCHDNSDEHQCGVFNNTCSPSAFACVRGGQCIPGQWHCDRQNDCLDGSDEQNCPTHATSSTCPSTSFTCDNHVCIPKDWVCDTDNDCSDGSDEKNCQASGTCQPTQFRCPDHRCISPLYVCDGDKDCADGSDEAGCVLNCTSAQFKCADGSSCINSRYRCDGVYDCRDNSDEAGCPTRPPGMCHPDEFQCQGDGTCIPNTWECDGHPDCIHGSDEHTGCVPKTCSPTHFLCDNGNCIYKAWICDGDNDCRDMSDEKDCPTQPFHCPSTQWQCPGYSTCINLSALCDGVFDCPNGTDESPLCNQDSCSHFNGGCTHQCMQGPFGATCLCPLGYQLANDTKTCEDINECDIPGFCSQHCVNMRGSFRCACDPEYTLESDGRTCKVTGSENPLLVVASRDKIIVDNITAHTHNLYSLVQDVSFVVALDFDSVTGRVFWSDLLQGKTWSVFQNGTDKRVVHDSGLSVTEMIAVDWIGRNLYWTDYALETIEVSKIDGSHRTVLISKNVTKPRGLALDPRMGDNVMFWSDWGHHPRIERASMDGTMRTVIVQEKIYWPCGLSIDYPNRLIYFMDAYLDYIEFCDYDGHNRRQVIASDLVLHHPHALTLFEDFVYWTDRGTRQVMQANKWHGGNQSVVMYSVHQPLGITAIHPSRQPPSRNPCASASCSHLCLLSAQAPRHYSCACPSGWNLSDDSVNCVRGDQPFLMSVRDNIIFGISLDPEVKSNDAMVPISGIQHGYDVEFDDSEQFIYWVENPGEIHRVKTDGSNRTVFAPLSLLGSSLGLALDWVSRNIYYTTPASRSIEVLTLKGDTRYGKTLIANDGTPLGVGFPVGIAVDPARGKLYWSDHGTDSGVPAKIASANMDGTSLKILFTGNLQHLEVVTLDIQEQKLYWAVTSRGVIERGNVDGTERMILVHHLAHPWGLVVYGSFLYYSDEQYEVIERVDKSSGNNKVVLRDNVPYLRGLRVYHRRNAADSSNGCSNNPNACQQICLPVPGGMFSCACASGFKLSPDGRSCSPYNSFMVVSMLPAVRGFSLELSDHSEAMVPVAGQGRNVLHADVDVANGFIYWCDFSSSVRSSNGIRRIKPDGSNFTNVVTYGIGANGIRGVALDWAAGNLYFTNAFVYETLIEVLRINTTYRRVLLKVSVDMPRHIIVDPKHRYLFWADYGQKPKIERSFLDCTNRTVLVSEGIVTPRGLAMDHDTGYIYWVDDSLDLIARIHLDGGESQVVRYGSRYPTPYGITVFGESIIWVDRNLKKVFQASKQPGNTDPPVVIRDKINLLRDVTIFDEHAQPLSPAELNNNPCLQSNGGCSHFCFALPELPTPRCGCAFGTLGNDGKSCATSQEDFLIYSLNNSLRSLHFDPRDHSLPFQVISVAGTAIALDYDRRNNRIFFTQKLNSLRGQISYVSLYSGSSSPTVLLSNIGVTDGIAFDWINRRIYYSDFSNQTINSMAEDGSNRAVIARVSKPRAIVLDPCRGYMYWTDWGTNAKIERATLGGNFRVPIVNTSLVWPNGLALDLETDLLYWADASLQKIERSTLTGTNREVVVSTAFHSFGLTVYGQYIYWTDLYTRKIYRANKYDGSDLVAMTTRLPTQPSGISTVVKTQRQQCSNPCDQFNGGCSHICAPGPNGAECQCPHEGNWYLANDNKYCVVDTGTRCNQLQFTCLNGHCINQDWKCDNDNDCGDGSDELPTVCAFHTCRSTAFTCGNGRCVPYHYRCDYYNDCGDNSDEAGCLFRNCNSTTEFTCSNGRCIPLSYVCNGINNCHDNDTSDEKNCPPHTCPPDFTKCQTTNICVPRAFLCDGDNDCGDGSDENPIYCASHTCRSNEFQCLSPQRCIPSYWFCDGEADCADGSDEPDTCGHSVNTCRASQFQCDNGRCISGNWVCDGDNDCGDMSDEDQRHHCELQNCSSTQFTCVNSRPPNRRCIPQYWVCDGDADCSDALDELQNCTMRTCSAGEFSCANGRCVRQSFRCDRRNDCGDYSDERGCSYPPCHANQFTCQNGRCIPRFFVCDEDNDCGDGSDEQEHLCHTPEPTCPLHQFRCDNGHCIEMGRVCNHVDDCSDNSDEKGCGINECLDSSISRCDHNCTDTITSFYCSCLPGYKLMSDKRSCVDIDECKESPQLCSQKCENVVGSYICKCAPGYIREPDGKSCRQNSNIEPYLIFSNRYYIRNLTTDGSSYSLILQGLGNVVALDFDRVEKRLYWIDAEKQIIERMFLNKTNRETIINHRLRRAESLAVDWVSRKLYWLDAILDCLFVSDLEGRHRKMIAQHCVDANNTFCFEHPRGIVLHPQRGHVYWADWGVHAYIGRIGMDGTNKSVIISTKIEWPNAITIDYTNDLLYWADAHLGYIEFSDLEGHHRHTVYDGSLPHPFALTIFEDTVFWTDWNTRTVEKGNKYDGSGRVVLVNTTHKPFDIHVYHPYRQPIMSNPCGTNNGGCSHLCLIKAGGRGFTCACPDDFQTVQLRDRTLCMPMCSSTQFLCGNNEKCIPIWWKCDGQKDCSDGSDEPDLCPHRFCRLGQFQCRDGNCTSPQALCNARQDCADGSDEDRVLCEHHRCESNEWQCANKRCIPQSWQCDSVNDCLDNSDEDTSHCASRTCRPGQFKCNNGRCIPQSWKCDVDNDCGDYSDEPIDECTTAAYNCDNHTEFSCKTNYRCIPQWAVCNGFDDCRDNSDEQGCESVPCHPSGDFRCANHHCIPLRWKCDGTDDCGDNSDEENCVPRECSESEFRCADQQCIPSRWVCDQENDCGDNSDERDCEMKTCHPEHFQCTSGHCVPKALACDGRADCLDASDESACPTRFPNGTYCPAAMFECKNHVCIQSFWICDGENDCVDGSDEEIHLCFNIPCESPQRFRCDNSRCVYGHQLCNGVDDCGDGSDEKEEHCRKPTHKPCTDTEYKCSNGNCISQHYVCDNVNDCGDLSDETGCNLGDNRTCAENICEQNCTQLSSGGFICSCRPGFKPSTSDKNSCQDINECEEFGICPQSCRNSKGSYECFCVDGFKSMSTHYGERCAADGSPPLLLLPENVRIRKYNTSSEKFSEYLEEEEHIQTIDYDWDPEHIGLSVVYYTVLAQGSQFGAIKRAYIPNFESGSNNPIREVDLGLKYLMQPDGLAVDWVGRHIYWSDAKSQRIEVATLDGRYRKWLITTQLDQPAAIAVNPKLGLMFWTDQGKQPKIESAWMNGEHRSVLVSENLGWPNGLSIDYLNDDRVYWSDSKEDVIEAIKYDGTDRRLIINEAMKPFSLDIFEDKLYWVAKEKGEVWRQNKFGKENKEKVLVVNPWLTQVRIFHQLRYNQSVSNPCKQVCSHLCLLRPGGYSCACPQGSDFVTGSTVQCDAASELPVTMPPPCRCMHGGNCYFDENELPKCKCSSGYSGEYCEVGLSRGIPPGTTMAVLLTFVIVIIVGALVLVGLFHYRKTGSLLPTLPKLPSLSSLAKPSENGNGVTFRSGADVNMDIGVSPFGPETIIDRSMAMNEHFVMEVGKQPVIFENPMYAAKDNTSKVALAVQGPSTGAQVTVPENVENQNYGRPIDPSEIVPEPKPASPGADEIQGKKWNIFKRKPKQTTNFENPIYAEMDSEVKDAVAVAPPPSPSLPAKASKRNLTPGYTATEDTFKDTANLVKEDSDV

B1: human cystatin C (natural protein, UniProt P01034 27-146, looked up)
chain: SSPGKPPRLVGGPMDASVEEEGVRRALDFAVGEYNKASNDMYHSRALQVVRARKQIVAGVNYFLDVELGRTTCTKTQPNLDNCPFHDQPHLKRKAFCSFQIYAVPWQGTMTLSKSTCQDA
notes: also called cysC
- Kd (rat cubilin): ~24 nM
- Kd (rat megalin): ~32 nM
